In experiment [1] the target is T1, hNGAL mutein C26, SEQ ID NO: 10 (Yd5 + L42P/P48L/Q49L/I55T/K75M) (Homo sapiens, UniProt P80188, C107S/D97E/I100T/I61A/I75T/K154S/K95M/L56R/L62P/L90R/P68L/Q48H/Q69L/R101M/S147Q/S88A/T156S/T165A/T74Q/V53Q/W99L/Y158L/Y72T).
T1 construct: the mature hNGAL protein and the C-terminal Strep-tag II; OmpA signal peptide (N, cleaved yes); made in house; host or cells: E. coli BL21 or TG1-F- (periplasm), plasmid pNGAL15
It is filed as binding. The settings on record: read-out: Kg (from half-maximal free metal chelate concentration).

Experiment [2] has as its target human neutrophil gelatinase-associated lipocalin (hNGAL, Lcn2, P80188), wild type (Homo sapiens, UniProt P80188). Particulars: cited from earlier work.
In experiment [3] the target is T2, hNGAL mutein Tb7, SEQ ID NO: 2 (Homo sapiens, UniProt P80188, C107S/I61A/K154S/L56R/L90R/Q48H/R101M/S88A/T165A/T74Q/V53Q/W99A/Y158L/Y72T).
T2 construct: the mature hNGAL protein and the C-terminal Strep-tag II; OmpA signal peptide (N, cleaved yes); made in house; host or cells: E. coli BL21 or TG1-F- (periplasm), plasmid pNGAL15
T2 sequence (P80188 21-198 Q48H/V53Q/L56R/I61A/Y72T/T74Q/S88A/L90R/W99A/R101M/C107S/K154S/Y158L/T165A): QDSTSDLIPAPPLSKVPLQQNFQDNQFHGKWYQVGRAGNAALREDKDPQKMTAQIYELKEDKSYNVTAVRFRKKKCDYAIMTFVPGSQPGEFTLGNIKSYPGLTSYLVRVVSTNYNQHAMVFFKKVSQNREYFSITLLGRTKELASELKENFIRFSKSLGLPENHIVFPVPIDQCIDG
The experiment is described as follows: ELISA, captured hNGAL variant with Me•DTPA conjugate. Particulars: Tb•DTPA-RNase A conjugate, read-out: apparent affinity. It is filed as binding.

The target in experiment [4] is T3, hNGAL mutein Tb7.N9, SEQ ID NO: 6 (Tb7 + A79L/I80T) (Homo sapiens, UniProt P80188, C107S/I100T/I61A/K154S/L56R/L90R/Q48H/R101M/S88A/T165A/T74Q/V53Q/W99L/Y158L/Y72T).
T3 construct: the mature hNGAL protein and the C-terminal Strep-tag II; OmpA signal peptide (N, cleaved yes); made in house; host or cells: E. coli BL21 or TG1-F- (periplasm), plasmid pNGAL15
T3 sequence (P80188 21-198 Q48H/V53Q/L56R/I61A/Y72T/T74Q/S88A/L90R/W99L/I100T/R101M/C107S/K154S/Y158L/T165A): as the sequence (P80188 21-198 Q48H/V53Q/L56R/I61A/Y72T/T74Q/S88A/L90R/W99A/R101M/C107S/K154S/Y158L/T165A) above, with A79L, I80T counted along it
The experiment is described as follows: SPR (Biacore), immobilized Me•DTPA-RNase. It is filed as binding. The protocol:
(§1) Real time analysis of hNGAL variants was performed on a BIAcore X system (BIAcore, Uppsala, Sweden) using PBS/t (PBS containing 0.005% (v/v) Tween 20) as running buffer. 5 to 27 μg/ml solutions of the Me•DTPA-RNase conjugate in 10 mM Na-acetate, pH 5.0 were immobilized on a CM5 chip using standard amine coupling chemistry, resulting in a ligand density of 240 to 1800 resonance units (RU). The purified hNGAL variant was applied at a flow rate of 5 or 25 μl/min at concentrations of 0.5 up to 500 nM. The sensorgrams were corrected by subtraction of the corresponding signals measured for the control channel, which had been activated and blocked with ethanolamine. Kinetic data evaluation was performed by global fitting with BIAevaluation software V 3.0 (Karlsson et al. (1991) J. Immunol. Methods 145, 229-240). Alternatively, the plateau values at the end of the association phase (after 200 s) were plotted against the applied protein concentration and fitted as in the ELISA (see above) to determine the equilibrium dissociation constants (KO.
(§2) Finally, the hNGAL variants were analyzed by SPR using a Biacore CM-5 chip with the covalently attached Y-DTPA-RNaseA conjugate and applying the purified recombinant proteins (Table 3). […] The improved KD values result primarily from slower ligand dissociation.

Experiment [5] deals with T4, hNGAL mutein Ya6, SEQ ID NO: 8 (Tb7.N9.N34 with Thr136Ser) (Homo sapiens, UniProt P80188, C107S/I100T/I61A/K154S/L56R/L90R/Q48H/R101M/S147Q/S88A/T156S/T165A/T74Q/V53Q/W99L/Y158L/Y72T).
T4 construct: the mature hNGAL protein and the C-terminal Strep-tag II; Strep-tag II (C); OmpA signal peptide (N, cleaved yes); made in house; host or cells: E. coli BL21 or TG1-F- (periplasm), plasmid pNGAL15
T4 sequence (P80188 21-198 with the stated changes): as the sequence (P80188 21-198 Q48H/V53Q/L56R/I61A/Y72T/T74Q/S88A/L90R/W99A/R101M/C107S/K154S/Y158L/T165A) above, with A79L, I80T, S127Q, T136S counted along it
Put plainly: SPR (Biacore), immobilized Me•DTPA-RNase. It is filed as binding. The protocol: as §1, §2

Experiment [6] addresses T5, hNGAL mutein Tb7.N9.N34, SEQ ID NO: 7 (Tb7.N9 + S127Q) (Homo sapiens, UniProt P80188, C107S/I100T/I61A/K154S/L56R/L90R/Q48H/R101M/S147Q/S88A/T165A/T74Q/V53Q/W99L/Y158L/Y72T).
T5 construct: the mature hNGAL protein and the C-terminal Strep-tag II; Strep-tag II (C); OmpA signal peptide (N, cleaved yes); made in house; host or cells: E. coli BL21 or TG1-F- (periplasm), plasmid pNGAL15
The experiment is described as follows: SPR (Biacore), immobilized Me•DTPA-RNase. It is filed as binding. The protocol:
as §1, §2

Experiment [7] deals with T6, hNGAL mutein Tb7, SEQ ID NO: 2 (Gln28His, Val33Gln, Leu36Arg, Ile41Ala, Tyr52Thr, Thr54Gln, Ser68Ala, Leu70Arg, Trp79Ala, Arg81Met, Cys87Ser, Lys134Ser, Tyr138L (Homo sapiens, UniProt P80188, C107S/I61A/K154S/L56R/L90R/Q48H/R101M/S88A/T165A/T74Q/V53Q/W99A/Y158L/Y72T)).
T6 construct: the mature hNGAL protein and the C-terminal Strep-tag II; OmpA signal peptide (N, cleaved yes); made in house; host or cells: E. coli BL21 or TG1-F- (periplasm), plasmid pNGAL15
T6 sequence (P80188 21-198 Q48H/V53Q/L56R/I61A/Y72T/T74Q/S88A/L90R/W99A/R101M/C107S/K154S/Y158L/T165A): as the sequence (P80188 21-198 Q48H/V53Q/L56R/I61A/Y72T/T74Q/S88A/L90R/W99A/R101M/C107S/K154S/Y158L/T165A) above
Put plainly: SPR (Biacore), immobilized Me•DTPA-RNase. It is filed as binding. The protocol:
as §1, §2

Experiment [8] has as its target T7, hNGAL mutein Yd5, SEQ ID NO: 9 (Tb7.N9.N34 + D77E/T136S) (Homo sapiens, UniProt P80188, C107S/D97E/I100T/I61A/K154S/L56R/L90R/Q48H/R101M/S147Q/S88A/T156S/T165A/T74Q/V53Q/W99L/Y158L/Y72T).
T7 construct: the mature hNGAL protein and the C-terminal Strep-tag II; OmpA signal peptide (N, cleaved yes); made in house; host or cells: E. coli BL21 or TG1-F- (periplasm), plasmid pNGAL15
Put plainly: SPR (Biacore), immobilized Me•DTPA-RNase. It is filed as binding. The protocol:
as §1, §2

Experiment [9] has as its target T8, human neutrophil gelatinase-associated lipocalin (hNGAL), wild type, SEQ ID NO: 1 (Homo sapiens, UniProt P80188).
T8 construct: the mature hNGAL protein and the C-terminal Strep-tag II; OmpA signal peptide (N, cleaved yes); made in house; host or cells: E. coli BL21 or TG1-F- (periplasm), plasmid pNGAL14
Put plainly: ELISA, captured hNGAL variant with Me•DTPA conjugate. The experiment is classed as binding.

Setting [10] is: 5 μl/min, from the kinetic analysis, read-out: KD.
Where [11] appears, read: equilibrium analysis, read-out: Kd/eq.

Read-outs that look alike come from different tables or passages of the source.

T7 sequence (P80188 21-198 with the stated changes): as the sequence (P80188 21-198 Q48H/V53Q/L56R/I61A/Y72T/T74Q/S88A/L90R/W99A/R101M/C107S/K154S/Y158L/T165A) above, with D77E, A79L, I80T, S127Q, T136S counted along it
T5 sequence (P80188 21-198 with the stated changes): as the sequence (P80188 21-198 Q48H/V53Q/L56R/I61A/Y72T/T74Q/S88A/L90R/W99A/R101M/C107S/K154S/Y158L/T165A) above, with A79L, I80T, S127Q counted along it
human neutrophil gelatinase-associated lipocalin (hNGAL, Lcn2, P80188), wild type, sequence (P80188 21-198, one chain of several): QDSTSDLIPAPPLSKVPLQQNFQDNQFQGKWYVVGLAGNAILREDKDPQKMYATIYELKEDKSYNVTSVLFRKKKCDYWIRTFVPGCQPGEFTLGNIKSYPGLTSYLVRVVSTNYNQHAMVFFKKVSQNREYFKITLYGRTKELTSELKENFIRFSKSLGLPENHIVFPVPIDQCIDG
T1 sequence (P80188 21-198 with the stated changes): as the sequence (P80188 21-198 Q48H/V53Q/L56R/I61A/Y72T/T74Q/S88A/L90R/W99A/R101M/C107S/K154S/Y158L/T165A) above, with L42P, P48L, Q49L, I55T, K75M, D77E, A79L, I80T, S127Q, T136S counted along it
T8 sequence (P80188 21-198): as the sequence (P80188 21-198, one chain of several) above

Take `Nc1ccc(C[C@H](CN(CC(=O)O)[C@H]2CCCC[C@@H]2N(CC(=O)O)CC(=O)O)N(CC(=O)O)CC(=O)O)cc1.[Gd+3]` [Me•p-NH2-Bn-CHX-A″-DTPA (Gd^3+), [(R)-2-amino-3-(4-aminophenyl)propyl]-trans-(S,S)-cyclohexane-1,2-diamine-pentaacetic acid]: in experiment [1], the Kd stood at 3.6 ± 0.24 nM.

Regarding `C[C@H]1OC(=O)[C@@H](NC(=O)CNC(=O)c2cccc(O)c2O)[C@@H](C)OC(=O)[C@@H](NC(=O)CNC(=O)c2cccc(O)c2O)[C@@H](C)OC(=O)[C@H]1NC(=O)CNC(=O)c1cccc(O)c1O` [bacillibactin], in experiment [2], the “binding” value was “forms stable complexes”.

Consider `O=C(CC(O)(CC(=O)NCCCCNCCCNC(=O)c1ccc(O)c(O)c1)C(=O)O)NCCCCNCCCNC(=O)c1ccc(O)c(O)c1` [petrobactin], for which the “binding” value in experiment [2] was “does not bind”.

Turning to `O=C(N[C@H]1COC(=O)[C@@H](NC(=O)c2cccc(O)c2O)COC(=O)[C@@H](NC(=O)c2cccc(O)c2O)COC1=O)c1cccc(O)c1O.[Fe+3]` [Fe^3+-enterobactin, enterobactin], the Kd in experiment [2] (read-out: dissociation constant (KD)) was 0.4 nM.

Regarding `Nc1ccc(C[C@H](CN(CC(=O)O)[C@H]2CCCC[C@@H]2N(CC(=O)O)CC(=O)O)N(CC(=O)O)CC(=O)O)cc1.[In+3]` [Me•p-NH2-Bn-CHX-A″-DTPA (In^3+), [(R)-2-amino-3-(4-aminophenyl)propyl]-trans-(S,S)-cyclohexane-1,2-diamine-pentaacetic acid], the Kd in experiment [1] came out at 44.7 ± 2.5 nM.

For the molecule `Nc1ccc(C[C@H](CN(CC(=O)O)[C@H]2CCCC[C@@H]2N(CC(=O)O)CC(=O)O)N(CC(=O)O)CC(=O)O)cc1.[Tb+3]` [Me•p-NH2-Bn-CHX-A″-DTPA (Tb^3+), [(R)-2-amino-3-(4-aminophenyl)propyl]-trans-(S,S)-cyclohexane-1,2-diamine-pentaacetic acid], the Kd in experiment [1] is 2.9 ± 0.17 nM.

B1: Tb^3+•DTPA-RNase: p-SCN-Bn-CHX-A″-DTPA covalently coupled to bovine ribonuclease A (about 1:1), charged with Tb^3+ (conjugate, UniProt P61823 27-150, looked up)
Ribonuclease pancreatic: KETAAAKFERQHMDSSTSAASSSNYCNQMMKSRNLTKDRCKPVNTFVHESLADVQAVCSQKNVACKNGQTNCYQSYSTMSITDCRETGSSKYPNCAYKTTQANKHIIVACEGNPYVPVHFDASV
modifications: CHX-A''-DTPA chelate with Tb3+
With B1, the Kd was found to be 74.5 ± 7.8 nM in [3]; 15.2 nM in experiment [4] (setting [10]); 25 ± 2.7 nM in [4] (setting [11]); 2.39 nM in experiment [5] (setting [10]); 5 ± 0.22 nM in experiment [5] (setting [11]); 15.3 nM in [6] (setting [10]). Further, the Kd in experiment [6] (setting [11]) came out at 21 ± 2.3 nM; in [7] (setting [10]) it was 74.9 nM; in experiment [7] (from concentration-dependent saturation values in an equilibrium analysis, read-out: Kd/eq) it was 50 ± 6.5 nM; in experiment [8] (setting [10]), 2.34 nM; in experiment [8] (setting [11]), 3.8 ± 0.15 nM. The koff in [4] (5 μl/min) was 0.0105 s⁻¹; in experiment [5] (5 μl/min), 0.00296 s⁻¹; in [6] (5 μl/min) it was 0.0114 s⁻¹; in experiment [7] (5 μl/min), 0.0401 s⁻¹; in [8] (5 μl/min) it was 0.00246 s⁻¹. Moreover, the kon is 689000 M⁻¹ s⁻¹ in experiment [4] (5 μl/min), 746000 M⁻¹ s⁻¹ in experiment [6] (5 μl/min), 535000 M⁻¹ s⁻¹ in [7] (5 μl/min) and 1e+06 M⁻¹ s⁻¹ in experiment [8] (5 μl/min). Also, in experiment [9], the binding activity entry is recorded as “no measurable binding activity”.

Source of the values: patent US8420051B2, “Muteins of hNGAL and related proteins with affinity for a given target” (Technische Universitaet Meunchen, priority 2008, dated 2013).
